Reference: paper PMC6003574, “Selection of a novel CD19 aptamer for targeted delivery of doxorubicin to lymphoma cells”

Target: CD19 extracellular domain (Homo sapiens, UniProt P15391 20-291)
Assay: flow cytometry on protein-coated beads; PBS, 37 C; PBS, 37 C, 30 min, three PBS washes; bead flow cytometry, random ssDNA pool as background; pH not stated
Conditions: protein: commercial; label: FITC (flow cytometry); Cy3 (confocal); FITC at 5' end in selection primer

CD19 extracellular domain, sequence (P15391 20-291): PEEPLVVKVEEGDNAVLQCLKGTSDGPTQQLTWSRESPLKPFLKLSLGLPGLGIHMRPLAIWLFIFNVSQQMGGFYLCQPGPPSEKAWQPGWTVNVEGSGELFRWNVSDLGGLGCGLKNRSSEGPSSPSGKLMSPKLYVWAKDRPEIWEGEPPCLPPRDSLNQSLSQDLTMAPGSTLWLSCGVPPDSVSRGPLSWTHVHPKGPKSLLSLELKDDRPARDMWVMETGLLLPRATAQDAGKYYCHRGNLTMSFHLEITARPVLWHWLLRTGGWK

B1: LC1 (ssDNA)
DNA: TGCGTGTGTAGTGTGTCTGTTCTCCTTTTTTTGGTTGCTGCTCTTAGGGATTTGGGCGG
B1 was tested. Which Kd did it give?
The Kd was 85.4 nM.
